System: Escherichia coli TOP10
Test: shrunken log2 fold change of peptide-encoding DNA abundance (4.5 h post-induction vs induction); higher = less antimicrobial activity (less host growth inhibition)
Conditions: time post-induction: 4.5 h; library: site-saturation at positions 5, 18, 19, 20
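Further: peptides expressed intracellularly from a pBAD plasmid library in pooled LB shake-flask culture, induced with 0.3% L-arabinose, DNA abundance read by NGS, three biological replicates, DESeq2 with apeglm shrinkage.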

Sequence | shrunken log2 fold change
RRIRMRPPRLPRPRPRPSQEPRP | 0.226
RRIRWRPPRLPRPRPRPKSLPRP | -0.0933
RRIRERPPRLPRPRPRPECYPRP | -0.143
RRIRRRPPRLPRPRPRPFEQPRP | 0.105
RRIRTRPPRLPRPRPRPWIDPRP | -0.0368
RRIRERPPRLPRPRPRPKHPPRP | -0.0977
RRIRGRPPRLPRPRPRPGNCPRP | 0.131
RRIRDRPPRLPRPRPRPLSLPRP | 0.0554
RRIRNRPPRLPRPRPRPMWSPRP | -0.095
RRIRMRPPRLPRPRPRPSKHPRP | 0.159
RRIRWRPPRLPRPRPRPKTSPRP | 0.104
RRIRYRPPRLPRPRPRPIDWPRP | 0.0205
RRIRTRPPRLPRPRPRPRPIPRP | -0.138
RRIRPRPPRLPRPRPRPDYEPRP | -0.136
RRIRVRPPRLPRPRPRPKFMPRP | -0.0954
RRIRVRPPRLPRPRPRPDPSPRP | 0.226
RRIRVRPPRLPRPRPRPETSPRP | -0.369
RRIRERPPRLPRPRPRPFYGPRP | 0.015
RRIRARPPRLPRPRPRPEGMPRP | 1.2
RRIRHRPPRLPRPRPRPMKPPRP | -0.0628
RRIRDRPPRLPRPRPRPNCYPRP | -0.414
RRIRWRPPRLPRPRPRPLKLPRP | -0.225
RRIRSRPPRLPRPRPRPQNFPRP | 0.00814
RRIRVRPPRLPRPRPRPVPKPRP | 0.128
RRIRKRPPRLPRPRPRPMCCPRP | -0.178

Sequence | shrunken log2 fold change
RRIRFRPPRLPRPRPRPCGNPRP | -0.0344
RRIRIRPPRLPRPRPRPMIAPRP | -0.101
RRIRGRPPRLPRPRPRPQSEPRP | 0.273
RRIRTRPPRLPRPRPRPPKNPRP | -0.0268
RRIRSRPPRLPRPRPRPYAQPRP | -0.535
RRIRFRPPRLPRPRPRPRGMPRP | 0.2
RRIRKRPPRLPRPRPRPPTDPRP | 0.544
RRIRGRPPRLPRPRPRPFWAPRP | 0.325
RRIRHRPPRLPRPRPRPGNFPRP | -0.537
RRIRHRPPRLPRPRPRPGALPRP | -0.00348
RRIRPRPPRLPRPRPRPVVRPRP | 0.116
RRIRGRPPRLPRPRPRPLSAPRP | 0.507
RRIRARPPRLPRPRPRPWTTPRP | 0.0452
RRIRIRPPRLPRPRPRPEMYPRP | -0.174
RRIRSRPPRLPRPRPRPQYSPRP | -0.165
RRIRGRPPRLPRPRPRPADVPRP | 0.508
RRIRYRPPRLPRPRPRPRILPRP | -0.276
RRIRVRPPRLPRPRPRPCDCPRP | 0.00675
RRIRTRPPRLPRPRPRPYTKPRP | -0.248
RRIRTRPPRLPRPRPRPDWSPRP | 0.163
RRIRGRPPRLPRPRPRPSGRPRP | 0.522
RRIRTRPPRLPRPRPRPTYVPRP | -0.163
RRIRNRPPRLPRPRPRPMLIPRP | -0.0638
RRIRCRPPRLPRPRPRPCEAPRP | -0.369
RRIRARPPRLPRPRPRPRCEPRP | 0.416

Sequence | shrunken log2 fold change
RRIRPRPPRLPRPRPRPKNIPRP | -0.719
RRIRMRPPRLPRPRPRPSTIPRP | -0.23
RRIRVRPPRLPRPRPRPEFTPRP | -0.0269
RRIRHRPPRLPRPRPRPWKSPRP | -0.0679
RRIRLRPPRLPRPRPRPYEFPRP | -0.111
RRIRRRPPRLPRPRPRPSYFPRP | -0.395
RRIRNRPPRLPRPRPRPWWLPRP | -0.106
RRIRTRPPRLPRPRPRPAYWPRP | -0.017
RRIRFRPPRLPRPRPRPLCFPRP | -0.211
RRIRTRPPRLPRPRPRPKPPPRP | 0.353
RRIRYRPPRLPRPRPRPTMDPRP | -0.67
RRIRYRPPRLPRPRPRPASIPRP | -0.229
RRIRGRPPRLPRPRPRPQELPRP | 0.27
RRIRNRPPRLPRPRPRPDASPRP | 0.14
RRIRSRPPRLPRPRPRPYNWPRP | -0.0406
RRIRERPPRLPRPRPRPGKQPRP | -0.0388
RRIRNRPPRLPRPRPRPFGFPRP | -0.132
RRIRWRPPRLPRPRPRPMHYPRP | -0.107
RRIRYRPPRLPRPRPRPVWVPRP | 0.127
RRIRERPPRLPRPRPRPLGMPRP | -0.294
RRIRARPPRLPRPRPRPIENPRP | 0.203
RRIRFRPPRLPRPRPRPINQPRP | -0.694
RRIRCRPPRLPRPRPRPRGQPRP | -0.0954
RRIRNRPPRLPRPRPRPQCKPRP | -0.0743
RRIRVRPPRLPRPRPRPVQMPRP | -0.0712

Sequence | shrunken log2 fold change
RRIRHRPPRLPRPRPRPGFAPRP | 0.142
RRIRFRPPRLPRPRPRPEHDPRP | -0.446
RRIRMRPPRLPRPRPRPWDFPRP | 0.121
RRIRIRPPRLPRPRPRPHDYPRP | -0.262
RRIRLRPPRLPRPRPRPWRSPRP | -0.0908
RRIRRRPPRLPRPRPRPDWKPRP | 0.192
RRIRDRPPRLPRPRPRPLADPRP | 0.0597
RRIRCRPPRLPRPRPRPFFIPRP | -0.484
RRIRKRPPRLPRPRPRPCPIPRP | -0.212
RRIRQRPPRLPRPRPRPMFHPRP | -0.815
RRIRSRPPRLPRPRPRPQESPRP | -0.0242
RRIRSRPPRLPRPRPRPCWRPRP | 0.106
RRIRVRPPRLPRPRPRPTIHPRP | -0.239
RRIRHRPPRLPRPRPRPERKPRP | 0.0547
RRIRYRPPRLPRPRPRPGLMPRP | -0.103
RRIRSRPPRLPRPRPRPDQKPRP | -0.00231
RRIRFRPPRLPRPRPRPKNDPRP | -0.407
RRIRARPPRLPRPRPRPSLWPRP | 0.974
RRIRVRPPRLPRPRPRPCSHPRP | -0.246
RRIRSRPPRLPRPRPRPVDWPRP | 0.306
RRIRARPPRLPRPRPRPNQRPRP | 0.532
RRIRDRPPRLPRPRPRPRMAPRP | 0.465
RRIRLRPPRLPRPRPRPETQPRP | 0.00473
RRIRYRPPRLPRPRPRPYAYPRP | -0.948
RRIRCRPPRLPRPRPRPYWSPRP | -1.2

Sequence | shrunken log2 fold change
RRIRVRPPRLPRPRPRPNCRPRP | -0.0746
RRIRCRPPRLPRPRPRPLYNPRP | -1.22
RRIRMRPPRLPRPRPRPFEMPRP | 0.0316
RRIRCRPPRLPRPRPRPWIWPRP | -0.128
RRIRMRPPRLPRPRPRPSCSPRP | -0.0918
RRIRNRPPRLPRPRPRPNRTPRP | -0.0201
RRIRFRPPRLPRPRPRPNVVPRP | -0.046
RRIRNRPPRLPRPRPRPHVHPRP | -0.109
RRIRDRPPRLPRPRPRPYTAPRP | 0.0362
RRIRSRPPRLPRPRPRPMMCPRP | 0.0105
RRIRRRPPRLPRPRPRPIGTPRP | 0.00964
RRIRERPPRLPRPRPRPYLMPRP | -0.696
RRIRCRPPRLPRPRPRPVRLPRP | 0.499
RRIRDRPPRLPRPRPRPGMKPRP | -0.00884
RRIRKRPPRLPRPRPRPQHDPRP | 0.202
RRIRPRPPRLPRPRPRPRTEPRP | 0.306
RRIRMRPPRLPRPRPRPMKPPRP | -0.00107
RRIRVRPPRLPRPRPRPYQCPRP | -0.185
RRIRCRPPRLPRPRPRPKDNPRP | -0.273
RRIRERPPRLPRPRPRPVHAPRP | -0.0762
RRIRMRPPRLPRPRPRPSQVPRP | -0.0436
RRIRIRPPRLPRPRPRPQERPRP | -0.17
RRIRSRPPRLPRPRPRPCRDPRP | -0.0619
RRIRIRPPRLPRPRPRPKQIPRP | -0.205
RRIRFRPPRLPRPRPRPSKDPRP | -0.347
